T1: AtXTH22 (Arabidopsis thaliana, UniProt Q38857)
T1 construct: gene XTH22
T1 sequence (Q38857 22-284): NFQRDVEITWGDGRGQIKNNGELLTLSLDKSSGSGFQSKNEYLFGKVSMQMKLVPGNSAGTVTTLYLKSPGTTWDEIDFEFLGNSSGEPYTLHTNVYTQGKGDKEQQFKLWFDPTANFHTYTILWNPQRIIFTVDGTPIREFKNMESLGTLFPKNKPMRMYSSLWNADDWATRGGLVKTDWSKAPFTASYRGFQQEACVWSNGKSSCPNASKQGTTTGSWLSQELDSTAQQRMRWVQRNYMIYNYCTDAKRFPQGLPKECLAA

B1: AtXTH3 (Arabidopsis thaliana) (protein)
chain: RVFGGRGIEKFVTFGQNYIVTWGQSHVSTLHSGEEVDLYMDQSSGGGFESKDAYGSGLFEMRIKVPSGNTGGIVTAFYLTSKGGGHDEIDFEFLGNNNGKPVTLQTNLFLNGEGNREERFLLWFNPTKHYHTYGLLWNPYQIVFYVDNIPIRVYKNENGVSYPSKPMQVEASLWNGDDWATDGGRTKVNWSYSPFIAHFRDFALSGCNIDGRSNNVGACESSNYWWNAGNYQRLSGNEQKLYEHVRSKYMNYDYCTDRSKYQTPPRECY

Legend:
AtXTH22 = biological target: T1, AtXTH22; assay: transglycosylation, size-exclusion chromatography with fluorescence detection; assay type: biochemical; conditions: 25 μM acceptor; donor tamarind xyloglucan 2 mg/mL; 50 mM sodium acetate pH 6.0, 30 °C, 24 h; labelled compound
[1] = substrate: OC[C@@H](O)[C@@H](O[C@@H]1O[C@H](CO[C@H]2OC[C@@H](O)[C@H](O)[C@H]2O)[C@@H](O[C@@H]2O[C@H](CO[C@H]3OC[C@@H](O)[C@H](O)[C@H]3O)[C@@H](O[C@@H]3O[C@H](CO[C@H]4OC[C@@H](O)[C@H](O)[C@H]4O)[C@@H](O)[C@H](O)[C@H]3O)[C@H](O)[C@H]2O)[C@H](O)[C@H]1O)[C@H](O)[C@@H](O)CNc1ccccn1; assay: transglycosylation, fluorescent product by anion-exchange LC after cellulase digestion; assay type: biochemical, Arabidopsis thaliana; conditions: acceptor, donor amorphous cellulose, 50 mM sodium acetate pH 5.0, 30 °C, 6 h, labelled compound
From the text: (§1) transglycosylation, fluorescent product by anion-exchange LC after cellulase digestion on AtXTH3 | Michaelis constant (KM) and turnover number (kcat) for acceptor oligosaccharides (left: GGGG-AP; right: XXXG-AP)

[2] = substrate: OC[C@@H](O)[C@@H](O[C@@H]1O[C@H](CO)[C@@H](O[C@@H]2O[C@H](CO)[C@@H](O[C@@H]3O[C@H](CO)[C@@H](O)[C@H](O)[C@H]3O)[C@H](O)[C@H]2O)[C@H](O)[C@H]1O)[C@H](O)[C@@H](O)CNc1ccccn1; assay: as above; assay type: biochemical, Arabidopsis thaliana; conditions: acceptor, donor amorphous cellulose, 50 mM sodium acetate pH 5.0, 30 °C, 6 h, labelled compound
From the text: as §1

Molecule	transglycosylation, size-exclusion chromatography with fluorescence detection (AtXTH22)	Km [1] [µM]	kcat [1]	Km [2] [µM]	kcat [2]
OC[C@@H](O)[C@@H](O[C@@H]1O[C@H](CO[C@H]2OC[C@@H](O)[C@H](O)[C@H]2O)[C@@H](O[C@@H]2O[C@H](CO[C@H]3OC[C@@H](O)[C@H](O)[C@H]3O)[C@@H](O[C@@H]3O[C@H](CO[C@H]4OC[C@@H](O)[C@H](O)[C@H]4O)[C@@H](O)[C@H](O)[C@H]3O)[C@H](O)[C@H]2O)[C@H](O)[C@H]1O)[C@H](O)[C@@H](O)CNc1ccccn1 [XXXG-AP, aminopyridyl xyloglucan-heptasaccharide]	AtXTH22 almost exclusively transferred xyloglucans to xyloglucan oligosaccharides				
B1		8.6 ± 2.3	9.0 ± 1.0 x10^-5 sec^-1	58.8 ± 8.4	8.0 ± 0.5 x10^-5 sec^-1

Reference: publication PMC5405413, “The plant cell-wall enzyme AtXTH3 catalyses covalent cross-linking between cellulose and cello-oligosaccharide” (Scientific Reports, 2017)
